Results taken from patent US20150165065A1 (AVIDBIOTICS, published 2015).
Read-outs that look alike come from different tables or passages of the source.

T1: biotinylated human NKG2D (human, UniProt P26718 78-216, limits assumed, biotinylated (site not stated))
T1 construct: Surface-coated in biolayer interferometry (Octet); also called recombinant biotinylated NKG2D
T1 sequence (looked up): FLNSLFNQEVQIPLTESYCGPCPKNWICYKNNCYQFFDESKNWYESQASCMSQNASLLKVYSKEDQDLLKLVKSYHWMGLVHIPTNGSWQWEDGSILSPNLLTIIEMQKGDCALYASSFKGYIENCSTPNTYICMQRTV

T2: human NKG2D-Fc (human, UniProt P26718 78-216, limits assumed)
T2 construct: construct not described; also called human NKG2D-Fc reagent; not shown: Fc part
T2 sequence (looked up): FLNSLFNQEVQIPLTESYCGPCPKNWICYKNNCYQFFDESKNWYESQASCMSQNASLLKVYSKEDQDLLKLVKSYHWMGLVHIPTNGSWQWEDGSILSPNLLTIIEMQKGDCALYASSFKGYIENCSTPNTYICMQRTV


Legend:
biotinylated human NKG2D [1] = target: T1, biotinylated human NKG2D; test: BLI (Octet), coated biotinylated human NKG2D, 100 nM analyte
human NKG2D-Fc [2] = target: T2, human NKG2D-Fc; test: competition ELISA, 2 nM human NKG2D-Fc on coated WT sMICA
Text: (§1) As for the NKG2D ligands (NKG2DLs) in the above example, we attached polypeptides directly to each of these 4 modified α1-α2 NKG2DLs using a linker peptide. The 4 His-tagged proteins (SEQ ID NOs.: 131-134) were expressed in insect cells and purified to characterize their NKG2D binding affinities and kinetic binding parameters. Using a competitive binding ELISA, we determined the relative NKG2D binding affinities of the 4 modified α1-α2 variants.

biotinylated human NKG2D [3] = target: T1, biotinylated human NKG2D; test: BLI (Octet), Kd = kOFF/kON
human NKG2D-Fc [4] = target: T2, human NKG2D-Fc; test: competition ELISA, human NKG2D-Fc on coated WT sMICA
Text: as §1

biotinylated human NKG2D [5] = target: T1, biotinylated human NKG2D; test: BLI (Octet)
[6] = target: NKG2D receptor on NKL effector cells (human) (UniProt P26718); test: cell-based or functional assay
integrin αVβ5 [7] = target: T3, integrin αVβ5 (UniProt P06756 31-992; P18084 24-719); test: phage ELISA, coated integrin, anti-M13-HRP
T3 construct: Coated on the ELISA plate
T3 sequence (P06756 31-992, chain 1 of 2): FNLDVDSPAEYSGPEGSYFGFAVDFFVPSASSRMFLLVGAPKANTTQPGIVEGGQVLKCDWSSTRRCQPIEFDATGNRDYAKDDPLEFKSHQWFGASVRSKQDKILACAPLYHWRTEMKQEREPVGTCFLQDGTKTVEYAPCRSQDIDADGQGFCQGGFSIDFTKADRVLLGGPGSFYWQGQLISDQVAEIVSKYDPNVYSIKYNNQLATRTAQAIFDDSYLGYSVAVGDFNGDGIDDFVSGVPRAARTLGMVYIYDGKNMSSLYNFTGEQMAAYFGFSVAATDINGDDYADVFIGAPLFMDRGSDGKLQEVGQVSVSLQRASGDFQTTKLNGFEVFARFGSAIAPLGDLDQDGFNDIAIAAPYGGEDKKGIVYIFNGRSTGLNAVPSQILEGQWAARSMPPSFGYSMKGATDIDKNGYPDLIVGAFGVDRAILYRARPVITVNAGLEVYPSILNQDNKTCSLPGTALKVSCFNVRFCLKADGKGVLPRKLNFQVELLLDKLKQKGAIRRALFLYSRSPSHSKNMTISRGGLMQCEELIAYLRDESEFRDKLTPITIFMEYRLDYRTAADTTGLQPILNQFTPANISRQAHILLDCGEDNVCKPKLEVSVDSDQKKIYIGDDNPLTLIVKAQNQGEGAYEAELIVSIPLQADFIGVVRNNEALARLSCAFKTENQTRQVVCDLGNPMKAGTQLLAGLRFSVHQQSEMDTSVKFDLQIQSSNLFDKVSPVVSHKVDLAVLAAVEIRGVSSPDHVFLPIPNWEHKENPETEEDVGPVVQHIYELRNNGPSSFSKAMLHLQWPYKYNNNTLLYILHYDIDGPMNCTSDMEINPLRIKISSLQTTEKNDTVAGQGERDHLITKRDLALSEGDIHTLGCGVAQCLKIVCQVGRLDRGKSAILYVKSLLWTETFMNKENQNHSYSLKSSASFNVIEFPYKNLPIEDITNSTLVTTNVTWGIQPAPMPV
T3 sequence (P18084 24-719, chain 2 of 2): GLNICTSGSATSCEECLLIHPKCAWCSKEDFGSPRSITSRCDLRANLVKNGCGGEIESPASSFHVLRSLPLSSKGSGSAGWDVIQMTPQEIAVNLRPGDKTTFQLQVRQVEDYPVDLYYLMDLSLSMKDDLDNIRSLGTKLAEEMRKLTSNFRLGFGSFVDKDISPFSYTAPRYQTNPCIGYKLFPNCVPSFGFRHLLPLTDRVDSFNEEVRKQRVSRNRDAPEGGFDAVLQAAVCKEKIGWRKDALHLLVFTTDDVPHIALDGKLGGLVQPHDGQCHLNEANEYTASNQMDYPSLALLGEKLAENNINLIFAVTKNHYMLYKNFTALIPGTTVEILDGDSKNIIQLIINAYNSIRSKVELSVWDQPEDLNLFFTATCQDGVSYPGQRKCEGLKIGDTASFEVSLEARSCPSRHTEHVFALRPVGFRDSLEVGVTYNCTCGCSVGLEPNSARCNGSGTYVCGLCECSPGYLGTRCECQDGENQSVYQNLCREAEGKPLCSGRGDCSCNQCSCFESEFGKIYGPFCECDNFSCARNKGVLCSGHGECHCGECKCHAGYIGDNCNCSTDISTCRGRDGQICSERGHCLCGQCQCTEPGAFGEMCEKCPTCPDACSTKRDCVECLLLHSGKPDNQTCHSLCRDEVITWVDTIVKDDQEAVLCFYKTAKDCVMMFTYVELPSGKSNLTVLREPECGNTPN
Protocol: (§2) The ELISA assays of the integrin target-binding of M13 phages displaying α3 domains with binding peptide inserts grafted into more than one loop were performed as follows. After the respective integrins were adhered to the bottoms of the wells of the ELISA plate, the wells were washed and blocked. Each sample (100 μl) of phage preparation was added to wells containing αVβ3 or αVβ5, incubated and washed. The phages captured by the integrins were detected by HRP-conjugated antibody to the M13 phage coat developed with Ultra TMB-ELISA substrate and the optical densities read.

integrin αVβ3 [8] = target: T4, integrin αVβ3 (UniProt P06756 31-992; P05106 27-718); test: phage ELISA, coated integrin, anti-M13-HRP
T4 construct: Coated on the ELISA plate
T4 sequence (P06756 31-992, chain 1 of 2): as the sequence (P06756 31-992, chain 1 of 2) above
T4 sequence (P05106 27-718, chain 2 of 2): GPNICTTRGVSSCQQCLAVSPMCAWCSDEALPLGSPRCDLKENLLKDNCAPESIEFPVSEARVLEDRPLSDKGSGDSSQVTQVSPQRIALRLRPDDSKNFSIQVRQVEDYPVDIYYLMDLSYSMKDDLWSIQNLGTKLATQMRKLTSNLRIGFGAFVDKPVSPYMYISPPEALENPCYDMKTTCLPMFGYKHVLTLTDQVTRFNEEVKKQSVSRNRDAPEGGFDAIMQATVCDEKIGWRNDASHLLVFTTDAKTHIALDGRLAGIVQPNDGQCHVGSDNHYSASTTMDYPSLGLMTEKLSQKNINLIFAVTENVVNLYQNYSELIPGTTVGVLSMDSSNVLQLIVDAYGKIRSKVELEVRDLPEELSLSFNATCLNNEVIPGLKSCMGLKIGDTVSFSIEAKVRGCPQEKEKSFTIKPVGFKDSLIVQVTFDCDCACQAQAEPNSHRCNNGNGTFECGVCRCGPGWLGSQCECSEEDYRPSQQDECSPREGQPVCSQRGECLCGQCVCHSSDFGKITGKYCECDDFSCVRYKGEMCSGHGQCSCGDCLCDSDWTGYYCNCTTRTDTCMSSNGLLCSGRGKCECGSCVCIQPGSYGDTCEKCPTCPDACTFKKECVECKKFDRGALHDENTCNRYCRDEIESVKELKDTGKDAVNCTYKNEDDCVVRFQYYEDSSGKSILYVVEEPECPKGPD
Protocol: as §2

integrin αVβ5 [9] = target: T3, integrin αVβ5; test: phage ELISA, coated integrin, anti-M13-HRP; remark: listed apart in the source
Protocol: (§3) The phage vectors were independently transformed into NEBαF′tet competent E. coli cells. Phages produced by the transformed cells were tittered and their concentrations adjusted by dilution to 10¹³ per ml. The ability of the soluble MICA molecules in each of the phage preparations was assayed by an ELISA using the intended target proteins, integrin αVβ3 or αVβ5, as capture agents on the ELISA plate. After the respective integrins were adhered to the bottoms of the wells of the ELISA plate, the wells were washed and blocked, as well known in the field. Each sample (100 μl) of phage preparation was added to wells containing αVβ3 or αVβ5, incubated and washed. The phages captured by the integrins were detected by HRP-conjugated antibody to the M13 phage coat developed with Ultra TMB-ELISA substrate and the optical densities read.

integrin αVβ3 [10] = target: T4, integrin αVβ3; test: phage ELISA, coated integrin, anti-M13-HRP; remark: listed apart in the source
Protocol: as §3

integrin αVβ5 [11] = target: T3, integrin αVβ5; test: phage ELISA, coated integrin, anti-M13-HRP; remark: listed apart in the source
integrin αVβ3 [12] = target: T4, integrin αVβ3; test: phage ELISA, coated integrin, anti-M13-HRP; remark: listed apart in the source

Binder	koff (biotinylated human NKG2D [1])	kon (biotinylated human NKG2D [1])	IC50 (human NKG2D-Fc [2])	Kd (biotinylated human NKG2D [3])	fold better binding than WT NKG2DL (IC50) (human NKG2D-Fc [4])	other results
WT α1-α2 domain soluble MICA protein (competitor and analyte) (ligand, also called wild-type (WT); WT MICA) EPHSLRYNLTVLSWDGSVQSGFLTEVHLDGQPFLRCDRQKCRAKPQGQWAEDVLGNKTWDRETRDLTGNGKDLRMTLAHIKDQKEGLHSLQEIRVCEIHEDNSTRSSQHFYYDGELFLSQNLETKEWTMPQSSRAQTLAMNVRNFLKEDAMKTKTHYHAMHADCLQELRRYLKSGVVLRRTVPPMVQVTRSEASGGSGDRVTITCRASQDVSTAVAWYQQKPGKAPKLLIYSASFLYSGVPSRFSGSGSGTDFTLTISSLQPEDFATYYCQQSYTTPPTFGQGTKVEIKGGSSRSSSSGGGGSGGGGEVQLVESGGGLVQPGGSLRLSCAASGFTFTSTGISWVRQAPGKGLEWVGRIYPTNGSTNYADSVKGRFTISADTSKNTAYLQMNSLRAEDTAVYYCARTYGIYDLYVDYTEYVMDYWGQGTLVTVSSGGSSRSSSSGGGGSGGGGDIQMTQSPSSLSASGGSGQITVTCRASGFYPWNITLSWRQDGVSLSHDTQQWGDVLPDGQGTYQTWVATRISQGEEQRFTCYMEHSGQHSTHPVPSGKGSHHHHHH	0.0018 s⁻¹	130000 M⁻¹ s⁻¹	19.4 nM	13.8 nM	–	–
WED-MICA (WED-α1-α2 domain; N69W, K152E, K154D) (designed binder, Whole entry as named) EPHSLRYNLTVLSWDGSVQSGFLTEVHLDGQPFLRCDRQKCRAKPQGQWAEDVLGNKTWDRETRDLTGWGKDLRMTLAHIKDQKEGLHSLQEIRVCEIHEDNSTRSSQHFYYDGELFLSQNLETKEWTMPQSSRAQTLAMNVRNFLKEDAMETDTHYHAMHADCLQELRRYLKSGVVLRRTVPPMVQVTRSEASGGSGDRVTITCRASQDVSTAVAWYQQKPGKAPKLLIYSASFLYSGVPSRFSGSGSGTDFTLTISSLQPEDFATYYCQQSYTTPPTFGQGTKVEIKGGSSRSSSSGGGGSGGGGEVQLVESGGGLVQPGGSLRLSCAASGFTFTSTGISWVRQAPGKGLEWVGRIYPTNGSTNYADSVKGRFTISADTSKNTAYLQMNSLRAEDTAVYYCARTYGIYDLYVDYTEYVMDYWGQGTLVTVSSGGSSRSSSSGGGGSGGGGDIQMTQSPSSLSASGGSGQITVTCRASGFYPWNITLSWRQDGVSLSHDTQQWGDVLPDGQGTYQTWVATRISQGEEQRFTCYMEHSGQHSTHPVPSGKGSHHHHHH	–	–	4.4 nM	–	–	apparent koff (pooled screen) (biotinylated human NKG2D [1]): 0.0017 s⁻¹; apparent kon (pooled screen) (biotinylated human NKG2D [1]): 290000 M⁻¹ s⁻¹; apparent Kd (pooled screen) (biotinylated human NKG2D [3]): 5.9 nM
α1-α2 variant 15 (designed binder, His-tagged protein from insect cells, modified α1-α2 domain with an attached polypeptide) EPHSLRYNLTVLSWDGSVQSGFLTEVHLDGQPFLRCDRQKCRAKPQGQWAEDVLGNKTWDRETRDLTGWGKDLRMTLAHIKDQKEGLHSLQEIRVCEIHEDNSTRSSQHFYYDGELFLSQNLETNEWTMPQSSRAQTLAMNVRNFLKEDAMETDTHYHAMRADCLQELRRYLKSGVVLRRTVPPMVQVTRSEASGGSGDRVTITCRASQDVSTAVAWYQQKPGKAPKLLIYSASFLYSGVPSRFSGSGSGTDFTLTISSLQPEDFATYYCQQSYTTPPTFGQGTKVEIKGGSSRSSSSGGGGSGGGGEVQLVESGGGLVQPGGSLRLSCAASGFTFTSTGISWVRQAPGKGLEWVGRIYPTNGSTNYADSVKGRFTISADTSKNTAYLQMNSLRAEDTAVYYCARTYGIYDLYVDYTEYVMDYWGQGTLVTVSSGGSSRSSSSGGGGSGGGGDIQMTQSPSSLSASGGSGQITVTCRASGFYPWNITLSWRQDGVSLSHDTQQWGDVLPDGQGTYQTWVATRISQGEEQRFTCYMEHSGQHSTHPVPSGKGSHHHHHH	0.00011 s⁻¹	70000 M⁻¹ s⁻¹	1.7 nM	1.5 nM	11 fold	–
α1-α2 variant 16 (designed binder, His-tagged protein from insect cells, modified α1-α2 domain with an attached polypeptide) EPHSLRYNLTVLSWDGSVQSGFLTEVHLDGQPFLRCDRQKCRAKPQGQWAEDVLGNKTWDRETRDLTGWGKDLRMTLAHIKDQKEGLHSLQEIRVCEIHEDNSTRSSQHFYYDGELFLSQNLETLEWTMPQSSRAQTLAMNVRNFLKEDAMETDTHYHAMRADCLQELRRYLKSGVVLRRTVPPMVQVTRSEASGGSGDRVTITCRASQDVSTAVAWYQQKPGKAPKLLIYSASFLYSGVPSRFSGSGSGTDFTLTISSLQPEDFATYYCQQSYTTPPTFGQGTKVEIKGGSSRSSSSGGGGSGGGGEVQLVESGGGLVQPGGSLRLSCAASGFTFTSTGISWVRQAPGKGLEWVGRIYPTNGSTNYADSVKGRFTISADTSKNTAYLQMNSLRAEDTAVYYCARTYGIYDLYVDYTEYVMDYWGQGTLVTVSSGGSSRSSSSGGGGSGGGGDIQMTQSPSSLSASGGSGQITVTCRASGFYPWNITLSWRQDGVSLSHDTQQWGDVLPDGQGTYQTWVATRISQGEEQRFTCYMEHSGQHSTHPVPSGKGSHHHHHH	9e-05 s⁻¹	200000 M⁻¹ s⁻¹	0.7 nM	0.5 nM	27 fold	fold affinity increase relative to WT α1-α2 (biotinylated human NKG2D [5]): ~30 fold; fold reduction in the off-rate relative to WT (biotinylated human NKG2D [5]): 18 fold; NK-mediated lysis of FGFR3-expressing P815 cells (calcein release) [6]: 15 fold
M13 phage pKK93 displaying MICA α3 domain with loop 1 insert 3.2 (designed binder, also called 1-3.2; not shown: C-terminal portion of M13 gene III protein, fused at codon position 198) TVPPMVNVTRTSRGDHPRTQVTCRASGFYPWNITLSWRQDGVSLSHDTQQWGDVLPDGNGTYQTWVATRICQGEEQRFTCYMEHSGNHSTHPVPSGK	–	–	–	–	–	αvβ5 signal (integrin αVβ5 [7]): 0.774 OD; αvβ3 signal (integrin αVβ3 [8]): 0.616 OD; αvβ5 signal (integrin αVβ5 [9]): 0.291 OD; αvβ3 signal (integrin αVβ3 [10]): 0.284 OD
M13 phage pKK95 displaying MICA α3 domain with loop 1 insert 3.4 (designed binder, not shown: large carriers) TVPPMVNVTRSARGDSDHRVTCRASGFYPWNITLSWRQDGVSLSHDTQQWGDVLPDGNGTYQTWVATRICQGEEQRFTCYMEHSGNHSTHPVPSGK	–	–	–	–	–	αvβ5 signal (integrin αVβ5 [11]): 0.232 OD; αvβ3 signal (integrin αVβ3 [12]): 0.345 OD
